# Data published in patent US20230174598A1 (UNIVERSITY OF FLORIDA RESEARCH FOUNDATION, published 2023).
# Target: T1, bovine enolase-1 (bovine, UniProt Q9XSJ4 1-434, AlexaFluor-546 maleimide on reactive cysteines (pulldown assay only; unlabeled in the quench and activity assays))
# Test: cell-based or functional assay
# T1 sequence (Q9XSJ4 whole entry): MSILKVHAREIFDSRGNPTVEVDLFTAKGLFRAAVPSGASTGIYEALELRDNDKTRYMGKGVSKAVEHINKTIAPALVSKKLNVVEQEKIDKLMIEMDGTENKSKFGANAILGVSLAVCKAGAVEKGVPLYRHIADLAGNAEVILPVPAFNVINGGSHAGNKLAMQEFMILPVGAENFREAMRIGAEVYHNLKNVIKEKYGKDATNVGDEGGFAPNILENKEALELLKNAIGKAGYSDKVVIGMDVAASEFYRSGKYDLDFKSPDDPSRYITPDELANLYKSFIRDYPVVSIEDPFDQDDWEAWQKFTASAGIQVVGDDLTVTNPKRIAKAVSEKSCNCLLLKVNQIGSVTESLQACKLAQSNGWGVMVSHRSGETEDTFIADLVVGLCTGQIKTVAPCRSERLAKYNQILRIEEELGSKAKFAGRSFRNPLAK
row,% inhibition of enolase-1 catalytic activity [%],Binder
1,18.3,E361G arrestin-1 variant (bovine) (other) MHHHHHHKANKPAPNHVIFKKISRDKSVTIYLGKRDYIDHVERVEPVDGVVLVDPELVKGKRVYVSLTCAFRYGQEDIDVMGLSFRRDLYFSQVQVFPPVGASGATTRLQESLIKKLGANTYPFLLTFPDYLPCSVMLQPAPQDVGKSCGVDFEIKAFATHSTDVEEDKIPKKSSVRLLIRKVQHAPRDMGPQPRAEASWQFFMSDKPLRLAVSLSKEIYYHGEPIPVTVAVTNSTEKTVKKIKVLVEQVTNVVLYSSDYYIKTVAAEEAQEKVPPNSSLTKTLTLVPLLANNRERRGIALDGKIKHEDTNLASSTIIKEGIDKTVMGILVSYQIKVKLTVSGLLGELTSSEVATEVPFRLMHPQPGDPDTAKESFQDENFVFEEFARQNLKDAGEYKEEKTDQEAAMDE
2,22.2,D362A arrestin-1 variant (bovine) (other) MHHHHHHKANKPAPNHVIFKKISRDKSVTIYLGKRDYIDHVERVEPVDGVVLVDPELVKGKRVYVSLTCAFRYGQEDIDVMGLSFRRDLYFSQVQVFPPVGASGATTRLQESLIKKLGANTYPFLLTFPDYLPCSVMLQPAPQDVGKSCGVDFEIKAFATHSTDVEEDKIPKKSSVRLLIRKVQHAPRDMGPQPRAEASWQFFMSDKPLRLAVSLSKEIYYHGEPIPVTVAVTNSTEKTVKKIKVLVEQVTNVVLYSSDYYIKTVAAEEAQEKVPPNSSLTKTLTLVPLLANNRERRGIALDGKIKHEDTNLASSTIIKEGIDKTVMGILVSYQIKVKLTVSGLLGELTSSEVATEVPFRLMHPQPEAPDTAKESFQDENFVFEEFARQNLKDAGEYKEEKTDQEAAMDE
3,9,E361A/D362A arrestin-1 variant (bovine) (other) MHHHHHHKANKPAPNHVIFKKISRDKSVTIYLGKRDYIDHVERVEPVDGVVLVDPELVKGKRVYVSLTCAFRYGQEDIDVMGLSFRRDLYFSQVQVFPPVGASGATTRLQESLIKKLGANTYPFLLTFPDYLPCSVMLQPAPQDVGKSCGVDFEIKAFATHSTDVEEDKIPKKSSVRLLIRKVQHAPRDMGPQPRAEASWQFFMSDKPLRLAVSLSKEIYYHGEPIPVTVAVTNSTEKTVKKIKVLVEQVTNVVLYSSDYYIKTVAAEEAQEKVPPNSSLTKTLTLVPLLANNRERRGIALDGKIKHEDTNLASSTIIKEGIDKTVMGILVSYQIKVKLTVSGLLGELTSSEVATEVPFRLMHPQPAAPDTAKESFQDENFVFEEFARQNLKDAGEYKEEKTDQEAAMDE
4,20.7,D362G arrestin-1 variant (bovine) (other) MHHHHHHKANKPAPNHVIFKKISRDKSVTIYLGKRDYIDHVERVEPVDGVVLVDPELVKGKRVYVSLTCAFRYGQEDIDVMGLSFRRDLYFSQVQVFPPVGASGATTRLQESLIKKLGANTYPFLLTFPDYLPCSVMLQPAPQDVGKSCGVDFEIKAFATHSTDVEEDKIPKKSSVRLLIRKVQHAPRDMGPQPRAEASWQFFMSDKPLRLAVSLSKEIYYHGEPIPVTVAVTNSTEKTVKKIKVLVEQVTNVVLYSSDYYIKTVAAEEAQEKVPPNSSLTKTLTLVPLLANNRERRGIALDGKIKHEDTNLASSTIIKEGIDKTVMGILVSYQIKVKLTVSGLLGELTSSEVATEVPFRLMHPQPEGPDTAKESFQDENFVFEEFARQNLKDAGEYKEEKTDQEAAMDE
5,21.1,E361A arrestin-1 variant (bovine) (other) MHHHHHHKANKPAPNHVIFKKISRDKSVTIYLGKRDYIDHVERVEPVDGVVLVDPELVKGKRVYVSLTCAFRYGQEDIDVMGLSFRRDLYFSQVQVFPPVGASGATTRLQESLIKKLGANTYPFLLTFPDYLPCSVMLQPAPQDVGKSCGVDFEIKAFATHSTDVEEDKIPKKSSVRLLIRKVQHAPRDMGPQPRAEASWQFFMSDKPLRLAVSLSKEIYYHGEPIPVTVAVTNSTEKTVKKIKVLVEQVTNVVLYSSDYYIKTVAAEEAQEKVPPNSSLTKTLTLVPLLANNRERRGIALDGKIKHEDTNLASSTIIKEGIDKTVMGILVSYQIKVKLTVSGLLGELTSSEVATEVPFRLMHPQPADPDTAKESFQDENFVFEEFARQNLKDAGEYKEEKTDQEAAMDE
6,8.3,E361G/D362A arrestin-1 variant (bovine) (other) MHHHHHHKANKPAPNHVIFKKISRDKSVTIYLGKRDYIDHVERVEPVDGVVLVDPELVKGKRVYVSLTCAFRYGQEDIDVMGLSFRRDLYFSQVQVFPPVGASGATTRLQESLIKKLGANTYPFLLTFPDYLPCSVMLQPAPQDVGKSCGVDFEIKAFATHSTDVEEDKIPKKSSVRLLIRKVQHAPRDMGPQPRAEASWQFFMSDKPLRLAVSLSKEIYYHGEPIPVTVAVTNSTEKTVKKIKVLVEQVTNVVLYSSDYYIKTVAAEEAQEKVPPNSSLTKTLTLVPLLANNRERRGIALDGKIKHEDTNLASSTIIKEGIDKTVMGILVSYQIKVKLTVSGLLGELTSSEVATEVPFRLMHPQPGAPDTAKESFQDENFVFEEFARQNLKDAGEYKEEKTDQEAAMDE
7,1.3,E361A/D362G arrestin-1 variant (bovine) (other) MHHHHHHKANKPAPNHVIFKKISRDKSVTIYLGKRDYIDHVERVEPVDGVVLVDPELVKGKRVYVSLTCAFRYGQEDIDVMGLSFRRDLYFSQVQVFPPVGASGATTRLQESLIKKLGANTYPFLLTFPDYLPCSVMLQPAPQDVGKSCGVDFEIKAFATHSTDVEEDKIPKKSSVRLLIRKVQHAPRDMGPQPRAEASWQFFMSDKPLRLAVSLSKEIYYHGEPIPVTVAVTNSTEKTVKKIKVLVEQVTNVVLYSSDYYIKTVAAEEAQEKVPPNSSLTKTLTLVPLLANNRERRGIALDGKIKHEDTNLASSTIIKEGIDKTVMGILVSYQIKVKLTVSGLLGELTSSEVATEVPFRLMHPQPAGPDTAKESFQDENFVFEEFARQNLKDAGEYKEEKTDQEAAMDE
8,0.7,"E361G/D362G arrestin-1 variant (bovine, His(6)-tagged) (other) MHHHHHHKANKPAPNHVIFKKISRDKSVTIYLGKRDYIDHVERVEPVDGVVLVDPELVKGKRVYVSLTCAFRYGQEDIDVMGLSFRRDLYFSQVQVFPPVGASGATTRLQESLIKKLGANTYPFLLTFPDYLPCSVMLQPAPQDVGKSCGVDFEIKAFATHSTDVEEDKIPKKSSVRLLIRKVQHAPRDMGPQPRAEASWQFFMSDKPLRLAVSLSKEIYYHGEPIPVTVAVTNSTEKTVKKIKVLVEQVTNVVLYSSDYYIKTVAAEEAQEKVPPNSSLTKTLTLVPLLANNRERRGIALDGKIKHEDTNLASSTIIKEGIDKTVMGILVSYQIKVKLTVSGLLGELTSSEVATEVPFRLMHPQPGGPDTAKESFQDENFVFEEFARQNLKDAGEYKEEKTDQEAAMDE"

# Target: T1, bovine enolase-1
# Test: KI quench protection of mBBr-labeled arrestin-1; 0.25 µM arrestin-1, 5 µM (20-fold) enolase-1
# Protocol: C. Quenching assay. Cysteine mutants of arrestin-1 were labeled with monobromobimane (mBBr, ThermoFisher), reacting the arrestin-1 protein with 100-fold molar excess of the fluorescent label for two hours at room temperature. The unreacted label was removed by dialyzing against three sequential changes of 500-volumes of LAP200 buffer. […] Fluorescence quenching of the mBBr fluorophore was performed using 0.25 μM mBBr-labeled arrestin-1 with 100 mM potassium iodide in the presence or absence of 5 μM bovine enolase-1 that had been heterologously expressed and purified as previously described for arrestin-1, monitoring fluorescence emission at 470 nm. To determine the degree to which enolase-1 shielded a residue from quenching by potassium iodide, a protection factor was calculated as follows: […]
# C. Mapping interaction of arrestin-1 with enolase-1. […] The fluorescence emission of the mBBr-labeled arrestin-1 with and without potassium iodide was measured to determine the range of quenching by KI. The fluorescence emission quench by KI with and without enolase-1 was then measured. A quench protection factor was calculated as described in the experimental procedures (Table 2). […] When mapped onto the surface of the arrestin-1 structure, these residues largely mapped to a single surface along the “bottom” of the arrestin protein (FIG. 2B).
F(A+E+K) (fluorescence with enolase-1 and KI),Pf (quench protection factor),Binder
1900,0.062,"V94C arrestin-1 (bovine, His(6), C63A/C143A) labeled with monobromobimane (other, monobromobimane (mBBr) on Cys 94, Cysteine-substitution mutant, made in Pichia pastoris) MHHHHHHKANKPAPNHVIFKKISRDKSVTIYLGKRDYIDHVERVEPVDGVVLVDPELVKGKRVYVSLTAAFRYGQEDIDVMGLSFRRDLYFSQVQVFPPCGASGATTRLQESLIKKLGANTYPFLLTFPDYLPCSVMLQPAPQDVGKSAGVDFEIKAFATHSTDVEEDKIPKKSSVRLLIRKVQHAPRDMGPQPRAEASWQFFMSDKPLRLAVSLSKEIYYHGEPIPVTVAVTNSTEKTVKKIKVLVEQVTNVVLYSSDYYIKTVAAEEAQEKVPPNSSLTKTLTLVPLLANNRERRGIALDGKIKHEDTNLASSTIIKEGIDKTVMGILVSYQIKVKLTVSGLLGELTSSEVATEVPFRLMHPQPEDPDTAKESFQDENFVFEEFARQNLKDAGEYKEEKTDQEAAMDE"
2440,0.269,"V281C arrestin-1 (bovine, His(6), C63A/C143A) labeled with monobromobimane (other, monobromobimane (mBBr) on Cys 281, Cysteine-substitution mutant, made in Pichia pastoris) MHHHHHHKANKPAPNHVIFKKISRDKSVTIYLGKRDYIDHVERVEPVDGVVLVDPELVKGKRVYVSLTAAFRYGQEDIDVMGLSFRRDLYFSQVQVFPPVGASGATTRLQESLIKKLGANTYPFLLTFPDYLPCSVMLQPAPQDVGKSAGVDFEIKAFATHSTDVEEDKIPKKSSVRLLIRKVQHAPRDMGPQPRAEASWQFFMSDKPLRLAVSLSKEIYYHGEPIPVTVAVTNSTEKTVKKIKVLVEQVTNVVLYSSDYYIKTVAAEEAQEKVPPNSSLTKTLTLCPLLANNRERRGIALDGKIKHEDTNLASSTIIKEGIDKTVMGILVSYQIKVKLTVSGLLGELTSSEVATEVPFRLMHPQPEDPDTAKESFQDENFVFEEFARQNLKDAGEYKEEKTDQEAAMDE"
8720,0.618,"S210C arrestin-1 (bovine, His(6), C63A/C143A) labeled with monobromobimane (other, monobromobimane (mBBr) on Cys 210, Cysteine-substitution mutant, made in Pichia pastoris) MHHHHHHKANKPAPNHVIFKKISRDKSVTIYLGKRDYIDHVERVEPVDGVVLVDPELVKGKRVYVSLTAAFRYGQEDIDVMGLSFRRDLYFSQVQVFPPVGASGATTRLQESLIKKLGANTYPFLLTFPDYLPCSVMLQPAPQDVGKSAGVDFEIKAFATHSTDVEEDKIPKKSSVRLLIRKVQHAPRDMGPQPRAEASWQFFMSDKPLRLAVSLCKEIYYHGEPIPVTVAVTNSTEKTVKKIKVLVEQVTNVVLYSSDYYIKTVAAEEAQEKVPPNSSLTKTLTLVPLLANNRERRGIALDGKIKHEDTNLASSTIIKEGIDKTVMGILVSYQIKVKLTVSGLLGELTSSEVATEVPFRLMHPQPEDPDTAKESFQDENFVFEEFARQNLKDAGEYKEEKTDQEAAMDE"
